“Also recorded” adds a separate entry of the source.
B1: N279: STARS deletion mutant lacking residues from the carboxy-terminus into the conserved region (protein)
chain: MAPGEKESGEGPAKSALRKIRTATLVISLARGWQQWANENSIRQAQEPTGWLPGGTQDSPQAPKPITPPTSHQKAQSAPKSPPRLPEGHGDGQSSEKAPEVSHIKKKEVSKTVVSKTYERGGDVSHLSHRYERDAGVLEPGQPENDIDRILHSHGSPTRRRKCANLVSELTKGWRVMEQEEPTWRSDSVDTEDSGYGGEAEERPEQDGVQVAVVRIKRPLPSQVNRFTEKLNCKAQQKYSPVGNLKGRWQQWADEHIQSQKLNPFSEEFDYELAMSTRL
modifications: left off: small tags and cut ends
notes: STARS deletion mutant lacking residues from the carboxy-terminus into the conserved region
B2: N304: STARS deletion mutant lacking residues from the carboxy-terminus into the conserved region (protein)
chain: MAPGEKESGEGPAKSALRKIRTATLVISLARGWQQWANENSIRQAQEPTGWLPGGTQDSPQAPKPITPPTSHQKAQSAPKSPPRLPEGHGDGQSSEKAPEVSHIKKKEVSKTVVSKTYERGGDVSHLSHRYERDAGVLEPGQPENDIDRILHSHGSPTRRRKCANLVSELTKGWRVMEQEEPTWRSDSVDTEDSGYGGEAEERPEQDGVQVAVVRIKRPLPSQVNRFTEKLNCKAQQKYSPVGNLKGRWQQWADEHIQSQKLNPFSEEFDYELAMSTRLHKGDEGYGRPKEGTKTAERAKRAEE
modifications: left off: small tags and cut ends
notes: as for B1
B3: C96: STARS deletion mutant within the conserved region (protein)
chain: HKGDEGYGRPKEGTKTAERAKRAEEHIYREMMDMCFIICTMARHRRDGKIQVTFGDLFDRYVRISDKVVGILMRARKHGLVDFEGEMLWQGRDDHV
modifications: left off: small tags and cut ends
notes: STARS deletion mutant within the conserved region
B4: N323: STARS deletion mutant lacking residues from the carboxy-terminus into the conserved region (protein)
chain: MAPGEKESGEGPAKSALRKIRTATLVISLARGWQQWANENSIRQAQEPTGWLPGGTQDSPQAPKPITPPTSHQKAQSAPKSPPRLPEGHGDGQSSEKAPEVSHIKKKEVSKTVVSKTYERGGDVSHLSHRYERDAGVLEPGQPENDIDRILHSHGSPTRRRKCANLVSELTKGWRVMEQEEPTWRSDSVDTEDSGYGGEAEERPEQDGVQVAVVRIKRPLPSQVNRFTEKLNCKAQQKYSPVGNLKGRWQQWADEHIQSQKLNPFSEEFDYELAMSTRLHKGDEGYGRPKEGTKTAERAKRAEEHIYREMMDMCFIICTMARH
modifications: left off: small tags and cut ends
notes: as for B1
B5: N346: STARS deletion mutant lacking residues from the carboxy-terminus into the conserved region (protein)
chain: MAPGEKESGEGPAKSALRKIRTATLVISLARGWQQWANENSIRQAQEPTGWLPGGTQDSPQAPKPITPPTSHQKAQSAPKSPPRLPEGHGDGQSSEKAPEVSHIKKKEVSKTVVSKTYERGGDVSHLSHRYERDAGVLEPGQPENDIDRILHSHGSPTRRRKCANLVSELTKGWRVMEQEEPTWRSDSVDTEDSGYGGEAEERPEQDGVQVAVVRIKRPLPSQVNRFTEKLNCKAQQKYSPVGNLKGRWQQWADEHIQSQKLNPFSEEFDYELAMSTRLHKGDEGYGRPKEGTKTAERAKRAEEHIYREMMDMCFIICTMARHRRDGKIQVTFGDLFDRYVRISDK
modifications: left off: small tags and cut ends
notes: as for B1
B6: N233: STARS deletion mutant lacking residues from the carboxy-terminus into the conserved region (protein)
chain: MAPGEKESGEGPAKSALRKIRTATLVISLARGWQQWANENSIRQAQEPTGWLPGGTQDSPQAPKPITPPTSHQKAQSAPKSPPRLPEGHGDGQSSEKAPEVSHIKKKEVSKTVVSKTYERGGDVSHLSHRYERDAGVLEPGQPENDIDRILHSHGSPTRRRKCANLVSELTKGWRVMEQEEPTWRSDSVDTEDSGYGGEAEERPEQDGVQVAVVRIKRPLPSQVNRFTEKLNC
modifications: left off: small tags and cut ends
notes: as for B1
B7: Del234-279: larger internal STARS deletion mutant within the conserved region (protein)
chain: MAPGEKESGEGPAKSALRKIRTATLVISLARGWQQWANENSIRQAQEPTGWLPGGTQDSPQAPKPITPPTSHQKAQSAPKSPPRLPEGHGDGQSSEKAPEVSHIKKKEVSKTVVSKTYERGGDVSHLSHRYERDAGVLEPGQPENDIDRILHSHGSPTRRRKCANLVSELTKGWRVMEQEEPTWRSDSVDTEDSGYGGEAEERPEQDGVQVAVVRIKRPLPSQVNRFTEKLNCHKGDEGYGRPKEGTKTAERAKRAEEHIYREMMDMCFIICTMARHRRDGKIQVTFGDLFDRYVRISDKVVGILMRARKHGLVDFEGEMLWQGRDDHV
modifications: left off: small tags and cut ends
notes: larger internal STARS deletion mutant within the conserved region

How the values were obtained:
[1] = tested on: SM22 promoter; experiment: SM22-luciferase reporter assay in transiently transfected COS cells; assay type: cell-based; details: for effect on SRF / SM22 promoter activation by STARS, in words (discussion): COS cells transfected with STARS
Text: STARS Expression Plasmids. STARS expression constructs were generated using the pcDNA3.1 mammalian expression vector (Invitrogen) which was modified to contain an amino-terminal Myc-tag. Constitutively active RhoA (L63) and C3 transferase in Prk5 were generously provided by Dr. Alan Hall (University College, London, United Kingdom). The SM22-luciferase reporter 1343 bp promoter has been previously described (Li et al., 1995). The smooth muscle α actin-luciferase reporter contained the 4 kb promoter region ligated into the pBL3basic vector (Promega). The ANF reporter contained the 638 bp promoter region (a generous gift from Dr. Mona Nemer, Universite de Montreal, Montreal, Quebec, Canada). The 4× cfos reporter contained four tandem copies of the cfos CArG box with flanking sequences, as described (Chang et al., 2001). CMV-lacZ (Promega) was used as an internal control for transfection efficiency.
(§1) Transient Transfections, Reporter Assays and Immunofluorescence Microscopy. COS cells were maintained in DMEM with 10% FBS. Eighteen hours after plating, the medium was changed to serum-free medium and transfections were performed at 50% confluency using FuGENE reagent-6 (Roche Molecular Biochemicals) following manufacturer's instructions. Each transfection used 0.15 μg of plasmid DNA for the reporter assays, and 0.5-1.0 μg immunohistochemistry. Cytochalasin D 2 μM (Sigma-Aldrich), and Y-27632 75 μM (Tocris) were added directly just after transfection. Latrunculin B 0.5 μM (dissolved in 10% ethanol, Calbiochem) was added 12 hr after transfection and 10% ethanol (final concentration 0.01%) was added to control wells. Cells were harvested 36 hr after transfection and their luciferase and β-galactosidase activity were measured.

[2] = tested on: F-actin; experiment: Immunofluorescence / Phalloidin-TRITC staining of transfected COS cells; assay type: cell-based; details: for stress fibers observed: STARS-transfected COS cells, 2 μM CD or 0.5 μM LB, data not shown; for association with F-actin / actin stress fibers / bundling of actin stress fibers: transfected COS cells, Myc-tagged proteins
Experimental: as §1
For measuring immunofluorescence, cells were rinsed with PBS and fixed in 4% paraformaldehyde for 10 min on ice. After rinsing with PBS, COS cells were incubated in 0.1% Triton X-100 in PBS for 5 min on ice. For rat neonatal cardiomyocytes, 1% Triton X-100 in PBS was used. Cells were blocked for 20 min at room temperature in 0.5% BSA in PBS for COS cells and in 1% BSA plus 3% goat serum in PBS for rat cardiomyocytes. Then, cells were incubated with first antibody diluted in 0.5% BSA in PBS for 30-60 min at room temperature or overnight at 4° C. Anti c-myc monoclonal antibody 9E10 (Santa Cruz) was used at a 1:200 dilution. Other antibodies were anti α-actinin monoclonal antibody (1:400; Sigma-Aldrich), α-tubulin antibody (1:2000; Sigma-Aldrich) and anti-vimentin antibody (1:500; Sigma-Aldrich). Secondary antibodies were anti mouse/rabbit IgG FITC or Texas red (Vector) used at a 1:200 dilution incubated with or without Phalloidin-TRITC (1:500; Sigma Aldrich).

[3] = tested on: actin; experiment: Co-immunoprecipitation of Myc-tagged proteins with actin in COS cells; assay type: binding; details: anti-Myc immunoprecipitation, anti-actin Western blot
Experimental: Western Blot and Co-immunoprecipitation Assay. Immunoprecipitation and western blot analysis was performed as described previously (Lu et al., 2000). For immunoprecipitation, cells were incubated with 1 μg anti c-myc polyclonal antibody A14 (Santa Cruz). Western blots were performed with anti-actin monoclonal antibody C4 (1:100; Roche Molecular Biochemicals) or anti c-myc monoclonal antibody 9E10 (1:1000; Santa Cruse) followed by incubation with secondary antibody HRP-conjugated anti mouse-IgG (Santa Cruse, Vector). To detect signals, blots were incubated with ECL (Santa Cruz) for 1 min, and exposed to film (Eastman Kodak Co).

Molecule | association with F-actin / actin stress fibers [2] | bundling of actin stress fibers [2] | co-immunoprecipitation with actin [3] | other results
RhoA L63: constitutively active RhoA mutant, expression vector [reference compound] | – | – | – | activation of the SM22 promoter ([1]; COS cells, STARS and RhoA L63 together): higher levels; activation of the SM22 promoter ([1]; COS cells, STARS or RhoA (L63) expression vector alone): comparable levels
C/C1=C/C(=O)O[C@@H]2C[C@@H](CC[C@H](C)/C=C\CC1)O[C@@](O)([C@@H]1CSC(=O)N1)C2 [LB, latrunculin B, reference compound] | – | – | – | effect on SRF / SM22 promoter activation by STARS, in words (discussion) [1]: inhibit the activity of STARS; SM22-luciferase activity under LB treatment ([1]; COS cells, 0.5 μM LB, even in cells transfected with STARS): abolished; stress fibers observed [2]: only short fragments of disrupted stress fibers
C=C1[C@@H](C)[C@H]2[C@H](Cc3ccccc3)NC(=O)[C@]23[C@H](OC(C)=O)/C=C/[C@@](C)(O)C(=O)[C@@H](C)C/C=C/[C@H]3[C@@H]1O [CD, cytochalasin D, reference compound] | – | – | – | increase of SM22 promoter activity by the agent itself ([1]; COS cells, 2 μM CD, without STARS): 8 fold; stress fibers observed [2]: only short fragments of disrupted stress fibers
C[C@@H](N)[C@H]1CC[C@H](C(=O)Nc2ccncc2)CC1 [Y-27632, reference compound] | – | – | – | effect on SRF / SM22 promoter activation by STARS, in words (discussion) [1]: only partially inhibits; effect on SRF / SM22 promoter activation by STARS, in words (discussion) ([1]; listed as Y27632): decreased SM22 promoter activity significantly; reduction of the stimulatory activity of STARS on the SM22 promoter ([1]; COS cells, Y-27632 75 μM): 55%
B1 | did not affect the association with F-actin | abolished the ability of STARS to bundle actin stress fibers | did not bind actin | –
B2 | did not affect the association with F-actin | abolished the ability of STARS to bundle actin stress fibers | did not bind actin | –
B3 | did not affect the association with F-actin; also recorded: just associates with actin stress fibers | abolished the ability of STARS to bundle actin stress fibers | – | –
B4 | did not affect the association with F-actin | abolished the ability of STARS to bundle actin stress fibers | did not bind actin | –
B5 | did not affect the association with F-actin | abolished the ability of STARS to bundle actin stress fibers | did not bind actin | –
B6 | did not affect the association with F-actin | abolished the ability of STARS to bundle actin stress fibers | did not bind actin | –
B7 | able to associate with F-actin | lost the ability to bundle actin fibers | failed to co-immunoprecipitate | –
